Assay [1] addresses T1, human CLDN18.2 (human).
T1 construct: also called hCLDN18.2; huCLDN18.2
Description: flow cytometry, phage supernatant; hCLDN18.2 cells against hCLDN18.1 cells.
Description: (§1) firstly, 1×10⁵ of human CLDN18.2-HEK293T and human CLDN18.1-HEK293 cells were taken, respectively and centrifuged at a low speed of 500 g, and the supernatant was removed.

For assay [2], the target named is T2, human CLDN18.1 (human, UniProt P56856 1-261).
T2 construct: Full length, overexpressed on HEK293 cells; also called hCLDN18.1; human CLDN18.1-HEK293
Description: flow cytometry, phage supernatant on hCLDN18.1-expressing HEK293 cells.
Description: as §1

For assay [3], the target named is T1, human CLDN18.2. Description: flow cytometry, phage supernatant on hCLDN18.2-expressing HEK293T cells.
Description: as §1
Assay [4] concerns the target T1, human CLDN18.2. The assay is described as follows: cell-based or functional assay.
Assay [5] concerns the target T2, human CLDN18.1. The assay is described as follows: flow cytometry, phage supernatant on human CLDN18.1-HEK293 cells.
Description: as §1
The target of assay [6] is T2, human CLDN18.1. The assay is described as follows: flow cytometry on CLDN18.1-HEK293 cells, different concentrations.
Description: Therefore, in this example, different concentrations of the antibody (including the high concentration of 100 μg/mL) were used to incubate with CLDN18.1-HEK293 in vitro. […] The antibody at different concentrations and target cells CLDN18.1-HEK293 were incubated at 4° C. for 1 h and then rinsed three times with the FACS buffer mentioned above. 0.5 μg (0.5 mg/ml) of PE-labelled goat anti-human IgG Fc antibody (Abcam, ab98596) was added and incubated at 4° C. for another 1 h. […] The binding strength and the positive rate of cell binding were recorded.

T2 sequence (P56856 whole entry): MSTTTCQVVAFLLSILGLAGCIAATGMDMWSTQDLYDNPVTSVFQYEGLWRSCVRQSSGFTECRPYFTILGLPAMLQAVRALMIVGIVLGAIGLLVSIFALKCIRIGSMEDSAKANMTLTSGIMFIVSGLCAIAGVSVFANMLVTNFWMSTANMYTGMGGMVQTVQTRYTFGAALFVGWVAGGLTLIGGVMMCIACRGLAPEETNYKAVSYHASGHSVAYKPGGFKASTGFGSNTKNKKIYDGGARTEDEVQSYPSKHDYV

B1: A18-1-48 (VHH)
VHH: EVQLVESGGGLVQPGGSLRLSCAASGNIFRIDTMGWYRQAPGKQREFVAGISRGGSTNYAHSVKERFTISRDNAKNTMYLQMNSLKSEDTAGYYCNAQAWDPGTIRYLEVWGQGTLVTVSA
With B1, the “ratio of mean fluorescence intensities on hCLDN18.2 and hCLDN18.1 cells” value (“ratio of mean fluorescence intensities” for short) with human CLDN18.2 [1] stood at 103. For the same molecule, the figures for the mean fluorescence intensity with human CLDN18.1 [2] and in the assay with human CLDN18.2 [3] were 3450 MFI and 357000 MFI, respectively.

B2: A293-82 (VHH)
VHH: EVQVVESGGGLVQPGGSLRLSCAASGNIFRIDTMVWYRQAPGKQRELVAGISRGGTTNYAHSVKGRFTISRDNAKNTMYLQMNSLKSEDTATYYCNAQAWDVGTIRYLEVWGQGTLVTVSA
Take B2: the “ratio of mean fluorescence intensities” value in the assay with human CLDN18.2 [1] is 102. In addition, the mean fluorescence intensity with human CLDN18.1 [2] is 4320 MFI; with human CLDN18.2 [3] it was 442000 MFI.

B3: A18-1-75 (VHH)
VHH: EVQLVESGGGLVQPGGSLRLSCAASGNIFRIDTMVWYRQAPGKQRELVAGISRGGTTNYAHSVKGRFTISRDNAKNTMYLQMNSLKSEDTATYYCNAQAWDVGTIRYLEVWGQGTLVTVSA
On to B3, for which, in the assay with human CLDN18.2 [1], the “ratio of mean fluorescence intensities” value stood at 99. Moreover, the mean fluorescence intensity is 3890 MFI with human CLDN18.1 [2] and 387000 MFI with human CLDN18.2 [3].

B4: A18-1-78 (VHH)
VHH: EVQLQESGGGLVQPGGSLRLSCAASGNIFRIDTMGWYRQAPGKQREFVAGISRGGSTNYAHSVKERFTISRDNAKNTMYLQMNSLKSEDTAGYYCNAQAWDPGTIRYLEVWGQGTLVTVSA
Turning to B4, the “ratio of mean fluorescence intensities” value in the assay with human CLDN18.2 [1] was 105. Moreover, the mean fluorescence intensity was 3680 MFI in the assay with human CLDN18.1 [2] and 385000 MFI with human CLDN18.2 [3].

B5: A18-1-64 (VHH)
VHH: QVQLVESGGGLVQPGGSLRLSCAASGNIFRIDTMGWYRQAPGKQREFVAGISRGGSTNYAHSVKERFTISRDNAKNTMYLQMNSLKSEDTAGYYCNAQAWDPGTIRYLEVWGQGTLVTVSS
In the case of B5, in the assay with human CLDN18.2 [1], the “ratio of mean fluorescence intensities” value turned out to be 116. The results for the mean fluorescence intensity in the assay with human CLDN18.1 [2] and with human CLDN18.2 [3] were 3500 MFI and 406000 MFI, respectively.

B6: A18-1-70 (VHH)
VHH: QVQLVESGGGLVQPGGSLRLSCAASGNIFRIDTMGWYRQAPGKQRELVAGISRGGTTTYAHSVKERFTISRDNAKNTMYLQMNSLKSEDTAGYYCNAQAWDPGTFRYLEVWGQGTLVTVSA
For B6, the “ratio of mean fluorescence intensities” value with human CLDN18.2 [1] was determined as 65. Further, the mean fluorescence intensity with human CLDN18.1 [2] worked out at 6230 MFI; with human CLDN18.2 [3] it was 402000 MFI.

B7: A18-1-50 (VHH)
VHH: EVQVQESGGGLVQPGGSLRLSCAASGNIFRIDTMGWYRQAPGKQRELVAGISRGGTTTYAHSVKERFTISRDNAKNTMYLQMNSLKSEDTAGYYCNAQAWDPGTFRYLEVWGQGTLVTVSA
In the case of B7, the “ratio of mean fluorescence intensities” value with human CLDN18.2 [1] was determined as 67. Moreover, the mean fluorescence intensity came to 6040 MFI in the assay with human CLDN18.1 [2] and 403000 MFI in the assay with human CLDN18.2 [3].

B8: A-2-4 (VHH)
VHH: EVQVQESGGGLVQAGTSLRLSCAASGNIFRIDTMGWYRQAPGKQRELVAGISRGGTTTYAHSVKERFTISRDNAKNTMYLQMNSLKSEDTAGYYCNAQAWDPGTFRYLEVWGQGTLVTVSA
notes: also called candidate nanobody A-2-4
As for B8, the “ratio of mean fluorescence intensities” value in the assay with human CLDN18.2 [1] was 137. Also, the mean fluorescence intensity amounted to 4330 MFI with human CLDN18.1 [2] and 592000 MFI with human CLDN18.2 [3].

B9: IMAB362 antibody (antibody, V domains shown)
VH: QVQLQQPGAELVRPGASVKLSCKASGYTFTSYWINWVKQRPGQGLEWIGNIYPSDSYTNYNQKFKDKATLTVDKSSSTAYMQLSSPTSEDSAVYYCTRSWRGNSFDYWGQGTTLTVSS
VL: DIVMTQSPSSLTVTAGEKVTMSCKSSQSLLNSGNQKNYLTWYQQKPGQPPKLLIYWASTRESGVPDRFTGSGSGTDFTLTISSVQAEDLAVYYCQNDYSYPFTFGSGTKLEIKR
On to B9, for which, in the assay with human CLDN18.2 [4], the “CDC cell killing on CLDN18.2-KATOIII cells, EC50 (run with NA3S-H1)” value was 149 nM; the “CDC cell killing on human CLDN18.2-HEK293T cells, EC50” value was 0.936 nM; the “CDC cell killing on human CLDN18.2-KATOIII tumor cells, EC50 (run with NA1-S, FIG. 6b)” value stood at 50.9 nM; the “CDC cell killing on human CLDN18.2-KATOIII tumor cells, EC50 (run with NA3-S, FIG. 7d)” value worked out at 85.8 nM. Besides, in the assay with human CLDN18.2 [4], the “Fab-ZAP cell killing (internalization) on CLDN18.2-HEK293T cells, IC50 (run with NA1-S)” value worked out at 0.24 nM and the “Fab-ZAP cell killing (internalization) on CLDN18.2-HEK293T cells, IC50 (run with NA3-S)” value turned out to be 0.32 nM.

B10: A18-1-42 (VHH)
VHH: EVQVVESGGGLVQPGGSLRLSCAASGSILHIPVMSWYRQAPGKQRELVAGISTGGTTNYGDSVKGRFTISRDNAKNTVYLQMNSLKPEDTAAYYCNVLVVSGIGSHLEVWG
notes: also called candidate nanobody A18-1-42
Take B10: in the assay with human CLDN18.2 [1], the “ratio of mean fluorescence intensities” value was determined as 392. The mean fluorescence intensity was 1010 MFI with human CLDN18.1 [2] and 396000 MFI in the assay with human CLDN18.2 [3]. Further, the binding result with human CLDN18.1 [5] is “no binding”.

B11: A18-1-44 (VHH)
VHH: EVQLVESGGGLVQPGGSLRLSCAASGSIFNLPVMSWYRQAPGKQRELVAGISTGGTTNYGDSVKGRFTISRDNAKNTVYLQMNSLKPEDTAVYYCNVLVISGIGSHLEVWG
B11: the “ratio of mean fluorescence intensities” value in the assay with human CLDN18.2 [1] came out at 104. Moreover, the mean fluorescence intensity with human CLDN18.1 [2] was determined as 3740 MFI; with human CLDN18.2 [3] it was 390000 MFI. Besides, the binding result with human CLDN18.1 [5] is listed as “no binding”.

B12: A18-1-63 (VHH)
VHH: QVQLQESGGGLVQPGGSLRLSCAASGSIFNIPVMGWYRQAPGKQRELVAGISTGGTTNYGDSVKGRFTISRDNAKNTVYLQMNSLKPEDTAVYYCNVLVVSGIGSTLEVWG
notes: also called candidate nanobody A18-1-63
For B12, the “ratio of mean fluorescence intensities” value in the assay with human CLDN18.2 [1] was determined as 2200. The mean fluorescence intensity was 175 MFI in the assay with human CLDN18.1 [2] and 385000 MFI in the assay with human CLDN18.2 [3]. Besides, the binding result with human CLDN18.1 [5] was “no binding”.

B13: A18-1-45 (VHH)
VHH: EVQLQESGGGLVQPGGSLRLSCAASGIIFNIPVMSWYRQAPGKQRELVAGISTGGTTNYGDSVKGRFTISRDNAKNTVYLQMNSLKPEDTAVYYCNVLVVSGIGSHLEVWG
As to B13, the “ratio of mean fluorescence intensities” value in the assay with human CLDN18.2 [1] turned out to be 78. Further, the mean fluorescence intensity with human CLDN18.1 [2] is 4750 MFI; in the assay with human CLDN18.2 [3], 369000 MFI. Also, in the assay with human CLDN18.1 [5], the binding result is on record as “no binding”.

B14: A-2-3 (VHH)
VHH: EVQLVESGGGLVQPGGSLRLSCAASGSIFNLPVMSWYRQAPGKQRELVAGISTGGTTNYGDSVKGRFTISRDNAKNTVYLQMNSLKPEDTAVYYCNVLVVSGIGSHLEVWG
Take B14: the “ratio of mean fluorescence intensities” value with human CLDN18.2 [1] worked out at 175. In addition, the mean fluorescence intensity with human CLDN18.1 [2] is 3260 MFI; in the assay with human CLDN18.2 [3] it was 570000 MFI. In the assay with human CLDN18.1 [5], the binding result is “no binding”.

B15: humanized antibody NA3S-H1 (Fc fusion)
chain: QVQLVESGGGLVQPGGSLRLSCAASGSIFNIPVMGWYRQAPGKQRELVAGISTGGTTNYGDSVKGRFTISRDNAKNTVYLQMNSLKPEDTAVYYCNVLVVSGIGSTLEVWGQGTLVTVSS
notes: Humanized form of NA3-S; also called candidate antibody NA3S-H1; humanized molecule NA3S-H1; not shown: a human IgG Fc is implied (detected with anti-human IgG Fc)
In the case of B15, in the assay with human CLDN18.2 [4], the “CDC cell killing on CLDN18.2-KATOIII cells, EC50” value came out at 10.4 nM. Further, the binding result with human CLDN18.1 [6] is given as “no binding (tested: 100 µg/mL)”.

B16: A18-1-6 (VHH)
VHH: EVQVQESGGGLVQPGGSLRLSCAASGSIFNIPVMSWYRQAPGKQRELVAGISTGGTTNYGDSVKGRFTISRDNAKTTVYLQMNSLKPEDTAVYYCNVLVISGIGSHLEVWG
B16: the “ratio of mean fluorescence intensities” value in the assay with human CLDN18.2 [1] is 201. Also, the values for the mean fluorescence intensity with human CLDN18.1 [2] and with human CLDN18.2 [3] were 1970 MFI and 396000 MFI, respectively. In the assay with human CLDN18.1 [5], the binding result was “no binding”.

B17: A293-55 (VHH)
VHH: QVQLVESGGGSVQPGGSLRLSCAASGSIFHIVVMGWYRQAPGKQRELVAGMSTGGTTNYGDSVKGRFTISRDNAKNTVYLQMNSLKPEDTAVYYCNVLVISGIGSHLEVWG
In the case of B17, the “ratio of mean fluorescence intensities” value with human CLDN18.2 [1] stood at 117. The mean fluorescence intensity with human CLDN18.1 [2] is 3340 MFI; with human CLDN18.2 [3], 392000 MFI. For the same molecule, the binding result with human CLDN18.1 [5] is recorded as “no binding”.

B18: A293-34 (VHH)
VHH: QVQLQESGGGLVQPGGSLRLSCAASGTFFNIPVMGWYRQAPGKQRELVAGISTGGTTNYGDSVKGRFTISRDNAKNTVYLQMNSLKPEDTAVYYCNVLVISGIGSHLEVWG
notes: also called candidate nanobody A293-34
In the case of B18, in the assay with human CLDN18.2 [1], the “ratio of mean fluorescence intensities” value worked out at 187. Also, the results for the mean fluorescence intensity in the assay with human CLDN18.1 [2] and with human CLDN18.2 [3] were 2430 MFI and 454000 MFI, respectively. Also, the binding result with human CLDN18.1 [5] is “no binding”.

B19: A18-1-65 (VHH)
VHH: EVQLQESGGGLVQPGGSLRLSCAASGTIFNLPVMSWYRQAPGKQRELVAGISTGGTTNYGDSVKGRFTISRDNARNTVYLQMNSLKPEDTAVYYCNVLVVSGIGSHLEVWG
As for B19, the “ratio of mean fluorescence intensities” value in the assay with human CLDN18.2 [1] came to 73. In addition, the mean fluorescence intensity came to 5890 MFI in the assay with human CLDN18.1 [2] and 428000 MFI in the assay with human CLDN18.2 [3]. Besides, the binding result in the assay with human CLDN18.1 [5] is “no binding”.

B20: A18-1-62 (VHH)
VHH: QVQLVESGGGLVQPGGSLRLSCAASGTIFNIPVMGWYRQAPGKQRELVAGISTGGTTNYGDSVKGRFTISRDNAKNTVYLQMNSLKPEDTAVYYCNVLVISGIGSHLEVWG
On to B20, for which the “ratio of mean fluorescence intensities” value with human CLDN18.2 [1] was found to be 126. The mean fluorescence intensity came to 2940 MFI in the assay with human CLDN18.1 [2] and 372000 MFI with human CLDN18.2 [3]. Besides, the binding result with human CLDN18.1 [5] was “no binding”.

The values above are taken from patent publication US20220396616A1 (SANYOU BIOPHARMACEUTICALS, published 2022).
